Measurements published in patent US20260028390A1, “ALPHA1-ANTITRYPSIN FOR USE IN THE TREATMENT OF DISEASES OR DISORDERS OF THE NERVOUS SYSTEM SUCH AS CHRONIC INFLAMMATORY DEMYELINATING POLYNEUROPATHY” (Ageronix SA, priority 2022, published 2026).

Assays:
[1] = molecular target: Recombinant Human TACE/ADAM17 Protein (R&D Systems 930-ADB) (human) (UniProt P78536); assay: cell-based or functional assay
[2] = molecular target: T1, Recombinant Human TACE/ADAM17 (Homo sapiens, UniProt P78536); assay: Cell free TACE/ADAM17 activity; assay type: biochemical
T1 construct: purchased R&D Systems 930-ADB-010
Procedure: TACE activity and its inhibition by human AAT (AAT) was performed with Recombinant Human TACE/ADAM17 kit (930-ADB and ES003, R&D Systems) in black 96-well immuno plates (437111, ThermoFisher Scientific). The enzymatic activity of TACE/ADAM17 was measured by mixing 0.005 μg of rhTACE with 10 μM of Mca-PLAQAV-Dpa-RSSSR-NH2 fluorogenic peptide substrate III in assay buffer (25 mM Tris, 2.5 μM ZnCl2, 0.005% Brij-35 (w/v), pH 9.0) to a final volume of 100 μl. AAT (Sigma Aldrich, batch A6150) was resuspended in water (vehicle), control TACE/ADAM17 activity was assessed in presence of the vehicle (amount used for AAT 100 μM). AAT was added at different concentration (0, 6.25, 12.5, 25, 50 and 100 μM) to assess its dose-dependent inhibition of TACE/ADAM17. All conditions were performed in triplicates. Activity was measured as relative fluorescent unit (RFU) in a kinetic mode (9 time points over 5 min) with a SpectraMax iD3 Microplate Reader (low PMT gain, is exposition, top read at 1 mm, wavelength: excitation 320 nm, emission 405 nm). Bar graph as percentage of control activity was obtained by averaging the values obtained over the 5 min for each of the condition.
TACE activity is assessed according to the manufacturer's instruction (Recombinant Human TACE/ADAM17 kit, 930-ADB, R&D Systems) in kinetic mode, without or with different AAT concentration. All conditions were done in triplicates and are shown as mean±SD (FIGS. 5A, 5B and 5C).
ADAM-17 activity and its inhibition by human peptide 8 was measured with Recombinant Human ADAM-17 kit (Recombinant Human TACE/ADAM17 Protein, CF: 930-ADB-010 and Mca-PLAQAV-Dpa-RSSSR-NH2 Fluorogenic Peptide Substrate:ES003; R&D Systems) in black 96-well immunoplates (437111; Thermo Fisher Scientific). The enzymatic activity of ADAM-17 was measured by mixing 0.005 μg of rhADAM-17 with 10 μM of Mca-PLAQAV-Dpa-RSSSR-NH2 fluorogenic peptide substrate III in assay buffer (25 mM Tris, 2.5 μM ZnCl2, 0.005% Brij-35 (w/v), pH 9.0) to a final volume of 100 μL. Peptide 8 (Syngene) was dissolved in DMSO and diluted to the desired concentration in assay buffer. Control ADAM-17 activity was assessed in the presence of the assay buffer. […] All conditions were performed in triplicate. Activity was measured as relative fluorescent units (RFU) in endpoint mode (5 min) with a SpectraMax iD3 Microplate Reader (automatic PMT gain, wavelengths: excitation 320 nm, emission 405 nm).

T1 sequence (P78536 215-671 limits assumed): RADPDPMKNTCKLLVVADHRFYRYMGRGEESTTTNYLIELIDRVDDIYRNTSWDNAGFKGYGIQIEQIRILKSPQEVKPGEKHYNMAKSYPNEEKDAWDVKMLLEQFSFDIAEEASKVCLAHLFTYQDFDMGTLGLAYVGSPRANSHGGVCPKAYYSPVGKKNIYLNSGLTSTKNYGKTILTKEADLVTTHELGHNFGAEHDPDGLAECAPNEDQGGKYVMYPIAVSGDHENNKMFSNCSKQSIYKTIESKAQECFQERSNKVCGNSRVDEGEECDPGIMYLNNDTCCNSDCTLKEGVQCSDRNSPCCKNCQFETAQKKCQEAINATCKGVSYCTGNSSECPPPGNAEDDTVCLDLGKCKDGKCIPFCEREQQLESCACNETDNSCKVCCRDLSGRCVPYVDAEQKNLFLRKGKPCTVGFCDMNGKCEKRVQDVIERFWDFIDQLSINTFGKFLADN
Sequence of Recombinant Human TACE/ADAM17 Protein (R&D Systems 930-ADB) (human) (P78536 215-671 limits assumed): as above

| IC50 of inhibition of TACE activity, cell-free fluorogenic peptide substrate assay [1] [µM] | inhibition of ADAM17 activity ([2]; peptide 8 at concentration of 100 (μM), experiment 2) [%] | inhibition of ADAM17 activity ([2]; peptide 8 at concentration of 200 (μM), experiment 2) [%] | inhibition of ADAM17 activity ([2]; peptide 8 at concentrations up to 50 μM, vs DMSO) | Substance |
| --- | --- | --- | --- | --- |
| 15.3 | – | – | – | human alpha1-antitrypsin (AAT) (Sigma Aldrich, batch A6150) (from UniProt P01009 25-418) |
| – | 36 | 65 | No significant inhibition | Ac-YRAHQGE-NH2 [Peptide 8, AAT-related peptide derived from immunoregulatory sites on the surface of AAT] |
